Source: doi:10.1101/483925
Where a chain is given by its changes, count along the chain named. Where two headings read alike, the source gives them in different places.

Columns and labels:
Assay in all cases: EMSA
[1] = biological target: T1, FD-C_T282E;14-3-3nu (GRF7) (Arabidopsis thaliana;Arabidopsis …, UniProt Q84JK2;Q96300 203-285;1-265, T282E|)
T1 sequence 1: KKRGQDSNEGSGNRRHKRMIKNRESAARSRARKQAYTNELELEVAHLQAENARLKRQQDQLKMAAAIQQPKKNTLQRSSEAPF
T1 sequence 2: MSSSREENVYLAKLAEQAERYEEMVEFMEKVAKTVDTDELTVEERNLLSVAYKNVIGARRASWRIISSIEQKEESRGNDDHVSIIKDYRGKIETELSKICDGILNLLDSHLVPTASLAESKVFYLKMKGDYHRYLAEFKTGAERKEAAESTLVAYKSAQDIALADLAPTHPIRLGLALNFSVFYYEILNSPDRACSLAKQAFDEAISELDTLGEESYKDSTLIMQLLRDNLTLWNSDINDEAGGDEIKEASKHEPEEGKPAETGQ

FD-C_T282E = biological target: T2, FD-C_T282E (Arabidopsis thaliana, UniProt Q84JK2 203-285, T282E)
T2 sequence: T1 sequence 1

[2] = biological target: FD-C;14-3-3nu (GRF7);TFL1 (Arabidopsis thaliana;Arabidopsis …, UniProt Q84JK2;Q96300;P93003 203-285;1-265;1-177, ||)
FD-C;14-3-3nu (GRF7);TFL1, sequence (P93003 whole entry, one chain of several): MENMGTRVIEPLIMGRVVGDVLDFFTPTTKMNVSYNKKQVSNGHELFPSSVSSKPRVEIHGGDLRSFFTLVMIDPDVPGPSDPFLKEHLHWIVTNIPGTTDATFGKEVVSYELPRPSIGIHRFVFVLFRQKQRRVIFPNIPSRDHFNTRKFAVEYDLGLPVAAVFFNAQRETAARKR

[3] = biological target: FD-C_T282E;14-3-3nu (GRF7);TFL1 (Arabidopsis thaliana;Arabidopsis …, UniProt Q84JK2;Q96300;P93003 203-285;1-265;1-177, T282E||)
FD-C_T282E;14-3-3nu (GRF7);TFL1, sequence (P93003 whole entry, stated change not applied, one chain of several): as the sequence (P93003 whole entry, one chain of several) above

[4] = biological target: T3, FD-C_T282E;14-3-3nu (GRF7);FT (Arabidopsis thaliana;Arabidopsis …, UniProt Q84JK2;Q96300;Q9SXZ2 203-285;1-265;1-175, T282E||)
T3 sequence (Q9SXZ2 whole entry, stated change not applied, one chain of several): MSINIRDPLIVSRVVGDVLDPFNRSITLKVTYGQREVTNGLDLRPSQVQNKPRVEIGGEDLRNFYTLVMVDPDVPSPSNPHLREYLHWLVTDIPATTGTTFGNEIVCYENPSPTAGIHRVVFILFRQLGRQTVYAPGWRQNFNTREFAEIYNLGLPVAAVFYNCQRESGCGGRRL

FD T282E full-length = biological target: T4, FD T282E full-length (Arabidopsis thaliana, UniProt Q84JK2 1-285, T282E)
T4 sequence: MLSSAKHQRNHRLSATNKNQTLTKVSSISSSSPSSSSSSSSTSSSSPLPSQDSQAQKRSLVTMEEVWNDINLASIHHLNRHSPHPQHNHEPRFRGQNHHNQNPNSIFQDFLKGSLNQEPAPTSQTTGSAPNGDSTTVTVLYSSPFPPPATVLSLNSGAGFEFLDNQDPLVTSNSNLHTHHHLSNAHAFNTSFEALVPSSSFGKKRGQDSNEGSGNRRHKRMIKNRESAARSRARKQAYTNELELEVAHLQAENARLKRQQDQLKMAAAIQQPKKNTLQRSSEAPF

FD full-length [5] = biological target: T5, FD full-length (Arabidopsis thaliana, UniProt Q84JK2 1-285)
T5 sequence: T4 sequence with E282T

FD-C = biological target: T6, FD-C (Arabidopsis thaliana, UniProt Q84JK2 203-285)
T6 sequence: T1 sequence 1 with E80T

FD full-length [6] = biological target: T5, FD full-length; remark: listed apart in the source
[7] = biological target: T3, FD-C_T282E;14-3-3nu (GRF7);FT; remark: listed apart in the source

B1: SEP3 promoter G-box probe (dsDNA)
DNA 1: CGAGATGTCGACACGTGTCCAAACTCAT
DNA 2: ATGAGTTTGGACACGTGTCGACATCTCG
[1]
  binding result: binds
FD-C_T282E
  binding result: binds
[2]
  binding result: binds
[3]
  binding result: binds
[4]
  binding result: binds
FD T282E full-length
  binding result: binds
FD full-length [5]
  binding result: binds

B2: SEP3 G-box to C-box (GACGTC) (dsDNA)
DNA 1: CGAGATGTCGAGACGTCTCCAAACTCAT
DNA 2: ATGAGTTTGGAGACGTCTCGACATCTCG
FD-C
  binding result: no binding
FD full-length [6]
  binding result: no binding

B3: AP1 promoter site 2 (dsDNA)
DNA 1: TACCAATGAGAAGTCGACACGCAAATCCTA
DNA 2: TAGGATTTGCGTGTCGACTTCTCATTGGTA
[1]
  binding result: binds
[3]
  binding result: binds
[7]
  binding result: binds

B4: SEP3 G-box CG to TA (CATATG) (dsDNA)
DNA 1: CGAGATGTCGACATATGTCCAAACTCAT
DNA 2: ATGAGTTTGGACATATGTCGACATCTCG
FD-C
  binding result: no binding
FD full-length [6]
  binding result: no binding

B5: SEP3 G-box CG to GC (CAGCTG) (dsDNA)
DNA 1: CGAGATGTCGACAGCTGTCCAAACTCAT
DNA 2: ATGAGTTTGGACAGCTGTCGACATCTCG
FD-C
  binding result: binds
FD full-length [6]
  binding result: binds
